From patent publication US20250352667A1

Tests used:
[1] = molecular target: KEAP1 (wild-type full-length), His-tagged (human) (UniProt Q14145); assay: AlphaScreen; 38.4 nM FLAG-NRF2, 150 nM His-KEAP1; Rep 2; control for I86V
[2] = molecular target: KEAP1 (wild-type full-length), His-tagged (human) (UniProt Q14145); assay: AlphaScreen; 614.4 nM FLAG-NRF2, 150 nM His-KEAP1; Rep 1; control for I86V
[3] = molecular target: KEAP1 (wild-type full-length), His-tagged (human) (UniProt Q14145); assay: AlphaScreen; 1228.8 nM FLAG-NRF2, 150 nM His-KEAP1; Rep 1; control for I28V
[4] = molecular target: KEAP1 (wild-type full-length), His-tagged (human) (UniProt Q14145); assay: AlphaScreen; 1228.8 nM FLAG-NRF2, 150 nM His-KEAP1; Rep 3; control for I86V
[5] = molecular target: KEAP1 (wild-type full-length), His-tagged (human) (UniProt Q14145); assay: AlphaScreen; 1228.8 nM FLAG-NRF2, 150 nM His-KEAP1; signal against NRF2 only; control for I86V
[6] = molecular target: KEAP1 (wild-type full-length), His-tagged (human) (UniProt Q14145); assay: AlphaScreen; FLAG-NRF2 wt isoform 1 4.8 nM, His-KEAP1 150 nM; Rep 1; positive control for Q75R
[7] = molecular target: KEAP1 (wild-type full-length), His-tagged (human) (UniProt Q14145); assay: AlphaScreen; FLAG-NRF2 wt isoform 1 76.8 nM, His-KEAP1 150 nM; Rep 1; positive control for Q75R
[8] = molecular target: KEAP1 (wild-type full-length), His-tagged (human) (UniProt Q14145); assay: AlphaScreen; FLAG-NRF2 wt isoform 1 307.2 nM, His-KEAP1 150 nM; Rep 2; positive control for Q75R
[9] = molecular target: KEAP1 (wild-type full-length), His-tagged (human) (UniProt Q14145); assay: AlphaScreen; FLAG-NRF2 wt isoform 1 1228.8 nM, His-KEAP1 150 nM; Rep 2; positive control for Q75R
[10] = molecular target: KEAP1 (wild-type full-length), His-tagged (human) (UniProt Q14145); assay: AlphaScreen; FLAG-NRF2 wt isoform 1 9.6 nM, His-KEAP1 150 nM; Repeat 2; positive control for Q75R
[11] = molecular target: KEAP1 (wild-type full-length), His-tagged (human) (UniProt Q14145); assay: AlphaScreen; FLAG-NRF2 wt isoform 1 38.4 nM, His-KEAP1 150 nM; Repeat 1; positive control for Q75R
[12] = molecular target: KEAP1 (wild-type full-length), His-tagged (human) (UniProt Q14145); assay: AlphaScreen, all variants on one plate; lower condition (9.6 nM NRF2), KEAP1 150 nM; the reference itself
[13] = molecular target: KEAP1 (wild-type full-length), His-tagged (human) (UniProt Q14145); assay: AlphaScreen; 1228.8 nM FLAG-NRF2, 150 nM His-KEAP1; Rep 2
[14] = molecular target: KEAP1 (wild-type full-length), His-tagged (human) (UniProt Q14145); assay: AlphaScreen; 9.6 nM FLAG-NRF2, 150 nM His-KEAP1; signal against NRF2 only
[15] = molecular target: KEAP1 (wild-type full-length), His-tagged (human) (UniProt Q14145); assay: AlphaScreen; 38.4 nM FLAG-NRF2, 150 nM His-KEAP1; signal against NRF2 only
[16] = molecular target: KEAP1 (wild-type full-length), His-tagged (human) (UniProt Q14145); assay: AlphaScreen; 38.4 nM FLAG-NRF2, 150 nM His-KEAP1 (same value as in Table 27)
[17] = molecular target: KEAP1 (wild-type full-length), His-tagged (human) (UniProt Q14145); assay: AlphaScreen; FLAG-NRF2 I86V 76.8 nM, His-KEAP1 150 nM; Rep 3
[18] = molecular target: KEAP1 (wild-type full-length), His-tagged (human) (UniProt Q14145); assay: AlphaScreen; FLAG-NRF2 I86V 153.6 nM, His-KEAP1 150 nM; Rep 2
[19] = molecular target: KEAP1 (wild-type full-length), His-tagged (human) (UniProt Q14145); assay: AlphaScreen; FLAG-NRF2 I86V 614.4 nM, His-KEAP1 150 nM; Rep 2
[20] = molecular target: KEAP1 (wild-type full-length), His-tagged (human) (UniProt Q14145); assay: AlphaScreen; NRF2 I86V 307.2 nM, KEAP1 150 nM; signal against NRF2-only control
[21] = molecular target: KEAP1 (wild-type full-length), His-tagged (human) (UniProt Q14145); assay: AlphaScreen; NRF2 I86V 9.6 nM, KEAP1 150 nM; relative to wild-type NRF2 isoform 1 (100 %)
[22] = molecular target: KEAP1 (wild-type full-length), His-tagged (human) (UniProt Q14145); assay: AlphaScreen; NRF2 I86V 19.2 nM, KEAP1 150 nM; relative to wild-type NRF2 isoform 1 (100 %)
[23] = molecular target: KEAP1 (wild-type full-length), His-tagged (human) (UniProt Q14145); assay: AlphaScreen; FLAG-NRF2 Q75R 4.8 nM, His-KEAP1 150 nM; Rep 2
[24] = molecular target: KEAP1 (wild-type full-length), His-tagged (human) (UniProt Q14145); assay: AlphaScreen; FLAG-NRF2 Q75R 19.2 nM, His-KEAP1 150 nM; Rep 1
[25] = molecular target: KEAP1 (wild-type full-length), His-tagged (human) (UniProt Q14145); assay: AlphaScreen; FLAG-NRF2 Q75R 76.8 nM, His-KEAP1 150 nM; Rep 2
[26] = molecular target: KEAP1 (wild-type full-length), His-tagged (human) (UniProt Q14145); assay: AlphaScreen; FLAG-NRF2 Q75R 1228.8 nM, His-KEAP1 150 nM; Rep 2
[27] = molecular target: KEAP1 (wild-type full-length), His-tagged (human) (UniProt Q14145); assay: AlphaScreen; FLAG-NRF2 Q75R 19.2 nM, His-KEAP1 150 nM; Repeat 2

Sequence of KEAP1 (wild-type full-length), His-tagged (human) (Q14145 2-624 limits assumed): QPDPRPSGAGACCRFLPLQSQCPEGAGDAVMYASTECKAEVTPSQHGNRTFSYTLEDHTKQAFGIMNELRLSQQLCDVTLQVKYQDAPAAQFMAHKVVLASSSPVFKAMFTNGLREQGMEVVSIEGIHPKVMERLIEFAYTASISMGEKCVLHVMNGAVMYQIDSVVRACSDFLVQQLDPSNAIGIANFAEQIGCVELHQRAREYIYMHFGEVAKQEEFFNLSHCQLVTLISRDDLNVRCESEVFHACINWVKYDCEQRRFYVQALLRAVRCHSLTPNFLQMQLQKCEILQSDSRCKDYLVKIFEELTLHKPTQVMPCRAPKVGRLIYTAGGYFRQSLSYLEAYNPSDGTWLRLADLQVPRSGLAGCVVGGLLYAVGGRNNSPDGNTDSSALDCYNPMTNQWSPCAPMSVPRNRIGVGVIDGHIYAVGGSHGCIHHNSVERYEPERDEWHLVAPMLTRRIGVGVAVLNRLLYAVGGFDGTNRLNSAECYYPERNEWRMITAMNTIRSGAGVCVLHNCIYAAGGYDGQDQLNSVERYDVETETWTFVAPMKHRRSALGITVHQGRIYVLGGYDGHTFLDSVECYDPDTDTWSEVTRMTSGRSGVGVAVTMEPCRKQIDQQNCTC

B1: NRF2 isoform 1 (wild-type full-length), FLAG-tagged (protein)
chain: MMDLELPPPGLPSQQDMDLIDILWRQDIDLGVSREVFDFSQRRKEYELEKQKKLEKERQEQLQKEQEKAFFAQLQLDEETGEFLPIQPAQHIQSETSGSANYSQVAHIPKSDALYFDDCMQLLAQTFPFVDDNEVSSATFQSLVPDIPGHIESPVFIATNQAQSPETSVAQVAPVDLDGMQQDIEQVWEELLSIPELQCLNIENDKLVETTMVPSPEAKLTEVDNYHFYSSIPSMEKEVGNCSPHFLNAFEDSFSSILSTEDPNQLTVNSLNSDATVNTDFGDEFYSAFIAEPSISNSMPSPATLSHSLSELLNGPIDVSDLSLCKAFNQNHPESTAEFNDSDSGISLNTSPSVASPEHSVESSSYGDTLLGLSDSEVEELDSAPGSVKQNGPKTPVHSSGDMVQPLSPSQGQSTHVHDAQCENTPEKELPVSPGHRKTPFTKDKHSSRLEAHLTRDELRAKALHIPFPVEKIINLPVVDFNEMMSKEQFNEAQLALIRDIRRRGKNKVAAQNCRKRKLENIVELEQDLDHLKDEKEKLLKEKGENDKSLHLLKKQLSTLYLEVFSMLRDEDGKPYSPSEYSLQQTRDGNVFLVPKSKKPDVKKN
A-counts [1]: 2850 A-counts | A-counts [2]: 2660 A-counts | A-counts [3]: 1450 A-counts | A-counts [4]: 2610 A-counts | S/N [5]: 1 | A-counts (NRF2 plus KEAP1) [6]: 725 A-counts | A-counts (NRF2 plus KEAP1) [7]: 1490 A-counts | A-counts (NRF2 plus KEAP1) [8]: 1570 A-counts | A-counts (NRF2 plus KEAP1) [9]: 1360 A-counts | A-counts (NRF2 plus KEAP1) [10]: 900 A-counts | A-counts (NRF2 plus KEAP1) [11]: 1480 A-counts | % Disruption in Binding [12]: 0%

B2: NRF2 isoform 1 (I28V full-length), FLAG-tagged (protein)
chain: MMDLELPPPGLPSQQDMDLIDILWRQDVDLGVSREVFDFSQRRKEYELEKQKKLEKERQEQLQKEQEKAFFAQLQLDEETGEFLPIQPAQHIQSETSGSANYSQVAHIPKSDALYFDDCMQLLAQTFPFVDDNEVSSATFQSLVPDIPGHIESPVFIATNQAQSPETSVAQVAPVDLDGMQQDIEQVWEELLSIPELQCLNIENDKLVETTMVPSPEAKLTEVDNYHFYSSIPSMEKEVGNCSPHFLNAFEDSFSSILSTEDPNQLTVNSLNSDATVNTDFGDEFYSAFIAEPSISNSMPSPATLSHSLSELLNGPIDVSDLSLCKAFNQNHPESTAEFNDSDSGISLNTSPSVASPEHSVESSSYGDTLLGLSDSEVEELDSAPGSVKQNGPKTPVHSSGDMVQPLSPSQGQSTHVHDAQCENTPEKELPVSPGHRKTPFTKDKHSSRLEAHLTRDELRAKALHIPFPVEKIINLPVVDFNEMMSKEQFNEAQLALIRDIRRRGKNKVAAQNCRKRKLENIVELEQDLDHLKDEKEKLLKEKGENDKSLHLLKKQLSTLYLEVFSMLRDEDGKPYSPSEYSLQQTRDGNVFLVPKSKKPDVKKN
A-counts [13]: 1030 A-counts | S/N [14]: 3.4 | S/N [15]: 2.7 | S/N [16]: 2.7

B3: NRF2 isoform 1 (I86V full-length), FLAG-tagged (protein)
chain: MMDLELPPPGLPSQQDMDLIDILWRQDIDLGVSREVFDFSQRRKEYELEKQKKLEKERQEQLQKEQEKAFFAQLQLDEETGEFLPVQPAQHIQSETSGSANYSQVAHIPKSDALYFDDCMQLLAQTFPFVDDNEVSSATFQSLVPDIPGHIESPVFIATNQAQSPETSVAQVAPVDLDGMQQDIEQVWEELLSIPELQCLNIENDKLVETTMVPSPEAKLTEVDNYHFYSSIPSMEKEVGNCSPHFLNAFEDSFSSILSTEDPNQLTVNSLNSDATVNTDFGDEFYSAFIAEPSISNSMPSPATLSHSLSELLNGPIDVSDLSLCKAFNQNHPESTAEFNDSDSGISLNTSPSVASPEHSVESSSYGDTLLGLSDSEVEELDSAPGSVKQNGPKTPVHSSGDMVQPLSPSQGQSTHVHDAQCENTPEKELPVSPGHRKTPFTKDKHSSRLEAHLTRDELRAKALHIPFPVEKIINLPVVDFNEMMSKEQFNEAQLALIRDIRRRGKNKVAAQNCRKRKLENIVELEQDLDHLKDEKEKLLKEKGENDKSLHLLKKQLSTLYLEVFSMLRDEDGKPYSPSEYSLQQTRDGNVFLVPKSKKPDVKKN
A-counts (NRF2 plus KEAP1) [17]: 2560 A-counts | A-counts (NRF2 plus KEAP1) [18]: 2580 A-counts | A-counts (NRF2 plus KEAP1) [19]: 1970 A-counts | S/N [20]: 1.3 | Binding Percentage [21]: 99.1% | Binding Percentage [22]: 97.8%

B4: NRF2 isoform 1 (Q75R full-length), FLAG-tagged (protein)
chain: MMDLELPPPGLPSQQDMDLIDILWRQDIDLGVSREVFDFSQRRKEYELEKQKKLEKERQEQLQKEQEKAFFAQLRLDEETGEFLPIQPAQHIQSETSGSANYSQVAHIPKSDALYFDDCMQLLAQTFPFVDDNEVSSATFQSLVPDIPGHIESPVFIATNQAQSPETSVAQVAPVDLDGMQQDIEQVWEELLSIPELQCLNIENDKLVETTMVPSPEAKLTEVDNYHFYSSIPSMEKEVGNCSPHFLNAFEDSFSSILSTEDPNQLTVNSLNSDATVNTDFGDEFYSAFIAEPSISNSMPSPATLSHSLSELLNGPIDVSDLSLCKAFNQNHPESTAEFNDSDSGISLNTSPSVASPEHSVESSSYGDTLLGLSDSEVEELDSAPGSVKQNGPKTPVHSSGDMVQPLSPSQGQSTHVHDAQCENTPEKELPVSPGHRKTPFTKDKHSSRLEAHLTRDELRAKALHIPFPVEKIINLPVVDFNEMMSKEQFNEAQLALIRDIRRRGKNKVAAQNCRKRKLENIVELEQDLDHLKDEKEKLLKEKGENDKSLHLLKKQLSTLYLEVFSMLRDEDGKPYSPSEYSLQQTRDGNVFLVPKSKKPDVKKN
A-counts (NRF2 plus KEAP1) [23]: 819 A-counts | A-counts (NRF2 plus KEAP1) [24]: 1300 A-counts | A-counts (NRF2 plus KEAP1) [25]: 1150 A-counts | A-counts (NRF2 plus KEAP1) [26]: 653 A-counts | A-counts (NRF2 plus KEAP1) [27]: 1280 A-counts
